# US20220305128
# Tested on: NF-kB (endogenous, A549 cells) (Homo sapiens)
# Assay: cell_activity
# Conditions: A549 MTT, 1 pmol RNA transfected; 89% day 1; indirect readout
sequence,measurement,value
"AAAAAAAAAAGAUCUUGAAACUGUUUUAAGGUUGGCCGAUCUUAAAAAA [NF-kB aptamer, circular RNA]",activity (% viability day 2),86
